Results from the supplement of paper PMC10126150.
± gives the standard deviation of the averaged measurements.

System: ATP
Test: switch fluorescence ratio, 500 uM ATP over buffer (Cy3 cluster intensity, sum of 5 cycles each) (fold (ratio)); higher = stronger signal-on switching upon ATP binding; sequences stand for … in TCGTCGGCAGCGTCAGATGTGTATAAGAGACAGTTTTTTTTTTTTTTTTTTTTTTTTT…TC
Conditions: aptamer strand: ATP DNA aptamer (quencher-CACCTGGGGGAGTATTGCGGAGGAAGG + anchor), 100 nM annealed; ATP concentration: 500 uM
Procedure, shortened: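 Between each of five buffer/ATP cycles, the flow-cell was stripped with NaOH and re-annealed. Each cycle imaged Cy3-labelled switching-strand clusters, annealed to 100 nM quencher-labelled ATP aptamer on a modified Illumina MiSeq flow-cell, first in selection buffer and then after 15 min with 500 uM ATP at 22 °C. The fluorescence ratio is summed target-cycle over summed buffer-cycle Cy3 intensity per cluster, averaged per switch-domain sequence, with clusters outside 100-1000 RFU excluded.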
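Further: ATP exposure 15 min at 22 °C before imaging.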

Sequence	switch fluorescence ratio
ACAATCTTTA	0.994 ± 0.03
CGTCAATCT	1.53 ± 0.061
AGCAATTGTG	1.04 ± 0.029
TGTGCTATGG	1.01 ± 0.02
GGCTTTATGG	0.977 ± 0.024
AATCGGGTTG	1 ± 0.019
ACCTGATAGT	1.044 ± 0.0066
GGAGAATGCG	1.02 ± 0.013
TTTAGCTTAA	0.986 ± 0.021
TTTTACGTTG	0.995 ± 0.01
GGGTTCTAGG	0.999 ± 0.043
ATAAGTTCTT	0.995 ± 0.033
AATGGCTCGC	0.996 ± 0.061
TGGGTCTTGA	1.001 ± 0.0062
GGGTGCAGGG	0.9932 ± 0.0059
TAGTGGTTTT	0.975 ± 0.02
TTTATTAGGC	0.996 ± 0.022
TTTAGGGGTA	0.996 ± 0.018
GGGGCGTGCG	1.01 ± 0.02
ATCACGTCGG	1.014 ± 0.0093
TTGCGATGGG	0.995 ± 0.03
ACATGCGTGG	0.992 ± 0.022
ATGCAGAGAG	1.01 ± 0.031
TAGGAGATTT	0.998 ± 0.03
ATTACTAGTT	0.9996 ± 0.0035

Sequence	switch fluorescence ratio
TGGCTGTCTT	0.97 ± 0.13
CGGTCTTGGG	0.9536 ± 0.0085
GAACGGCTAG	1.02 ± 0.011
TTTTGAAGCG	0.99 ± 0.024
TAAGACAGGG	1.02 ± 0.028
CAAGTTGGCG	0.995 ± 0.099
CGCTGTGGAA	1.04 ± 0.044
TAGGTGACGG	0.991 ± 0.021
ATAGCTTTGA	1.02 ± 0.0014
AATGAATAGA	1.012 ± 0.008
TTTTAAATGA	1 ± 0.021
GTTATTTGCT	0.988 ± 0.02
ACGATTTTTT	0.993 ± 0.013
GGTGATTGCT	0.967 ± 0.036
CCTGGATATT	0.997 ± 0.013
ACGGTGGAGT	1.02 ± 0.054
AGTAATGGGA	1.06 ± 0.064
TTTTATGGT	1.013 ± 0.0067
TGTAAAAAGG	0.98 ± 0.025
TCCAGGGGTG	1.65 ± 0.025
ATAGTTGAGG	0.981 ± 0.02
AACTCTCGGG	1 ± 0.014
AATATGGCCG	0.985 ± 0.037
TTACGCTATT	3.4 ± 2.4
CAAATGAAGT	1.02 ± 0.018

Sequence	switch fluorescence ratio
TCGTGTACGC	1 ± 0.023
TTTTTTGCTT	0.989 ± 0.038
GAGAGCCTTA	0.9853 ± 0.0079
GAGGGAGTAG	0.9962 ± 0.0012
GGCCCCGTTT	1.04 ± 0.18
AGTACGGGGT	0.982 ± 0.031
TAGTAAGAGG	1 ± 0.013
GGGGGGTGGA	1.01 ± 0.028
GGTTGGCGTC	0.955 ± 0.041
AAATTCGATT	1.032 ± 0.0037
CTCGATGTGA	1.05 ± 0.071
AGGCACCATC	1.06 ± 0.045
GGGCCCGGCG	0.973 ± 0.049
TCAGGTAGCG	1.004 ± 0.0061
ACGTCTAGTG	0.965 ± 0.023
GCTTTGTATA	1 ± 0.021
GCCGCCACCT	1.07 ± 0.019
TTCCAGTAGT	1.01 ± 0.03
ATGCCGATCG	1.05 ± 0.021
TGATTGTATT	0.979 ± 0.015
CGTTTTGTGA	1 ± 0.0054
CTCATGGGTT	1.02 ± 0.0011
CGCGGGGGTT	1.03 ± 0.035
AAGGTTCTAG	0.9895 ± 0.0026
CTTCTTTTCA	1.1 ± 0.064

Sequence	switch fluorescence ratio
TTTGGGTCGG	0.993 ± 0.018
ACTAGAAATG	0.984 ± 0.017
ATACGGGGTG	1.1 ± 0.035
TGATGTTATG	0.9911 ± 0.0025
GTAGCAAGGG	2.38 ± 1.9
CGCTACTATT	1.12 ± 0.087
TTAGGTTGTT	1.01 ± 0.013
CGGCGGAACG	0.966 ± 0.031
AATATAGGAC	0.972 ± 0.013
ATTTATGAG	0.977 ± 0.036
TGCCTGGCAG	1.08 ± 0.1
AAGGTCAGCT	0.991 ± 0.016
AGATTAGTTC	1.002 ± 0.0056
TTTACGCGGT	1.03 ± 0.015
TAGGTTTCAT	1.01 ± 0.014
AAAAGCCCTT	1.096 ± 0.0043
GAGCCTGGGT	1.01 ± 0.017
CATTCTTTTT	1.02 ± 0.049
TTGCTCAGGG	1.03 ± 0.041
CTGCATCCGG	1.314 ± 0.011
TGCTACCGGG	1.058 ± 0.0016
AGACGAGTCT	0.974 ± 0.03
GTTGAGCGTC	0.955 ± 0.032
TGGATAAGGA	0.983 ± 0.013
ATCTGTTAGG	1.03 ± 0.041
